For assay [1], the target named is MICA/MICB on tumor cells (MGC-803, U2OS). In words: cell-based or functional assay.
Assay [2] concerns the target PD-L1 on tumor cells (EMT6-PD-L1, U2OS) (UniProt Q9NZQ7). Nature of the assay: cell-based or functional assay.

The source of these data is patent US20260152561A1.

UniProt Q9NZQ7, sequence (Q9NZQ7 19-290 limits assumed): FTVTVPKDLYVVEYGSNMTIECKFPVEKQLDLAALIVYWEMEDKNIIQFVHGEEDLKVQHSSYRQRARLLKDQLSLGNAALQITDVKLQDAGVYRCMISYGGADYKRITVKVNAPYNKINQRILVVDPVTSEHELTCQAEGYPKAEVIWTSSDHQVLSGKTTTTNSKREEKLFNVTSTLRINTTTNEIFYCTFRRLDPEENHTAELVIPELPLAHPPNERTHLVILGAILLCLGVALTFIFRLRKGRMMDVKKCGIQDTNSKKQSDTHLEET

As for “dual-targeting chimeric antigen receptor PD1-DAP10-41BB-P2A-NKG2D-IgG4-CD28-41BB-CD3ζ, expressed on NK92 cells (PN-CAR-NK92)”, the cytotoxicity (luciferase killing assay, effector-to-target ratio 5:1) on U2OS cells in assay [1] and in assay [2] was 6 fold in each case.
